Assay results as given in patent publication US20250361322A1 (ICONIC THERAPEUTICS, published 2025).
Substitutions are numbered along the chain they refer to.

B1: 5G9 (humanized TF8-5G9, CNTO 860) (antibody, V domains shown)
VH: QVQLVESGGGVVQPGRSLRLSCKASGFNIKDYYMHWVRQAPGKGLEWIGLIDPENGNTIYDPKFQGRFTISADNSKNTLFLQMDSLRPEDTAVYYCARDNSYYFDYWGQGTPVTVSS
VL: DIQMTQSPSSLSASVGDRVTITCKASQDIRKYLNWYQQKPGKAPKLLIYYATSLADGVPSRFSGSGSGTDYTFTISSLQPEDIATYYCLQHGESPYTFGQGTKLEIT
B2: 25A5 (antibody, human IgG1, V domains shown)
VH: QVQLVQSGAEVKKPGASVKVSCKASGYTFDVYGISWVRQAPGQGLEWMGWIAPYSGNTNYAQKLQGRVTMTTDTSTSTAYMELRSLRSDDTAVYYCARDAGTYSPFGYGMDVWGQGTTVTVSS
VL: DIQMTQSPSTLSASVGDRVTITCRASESISNWLAWYQQKPGKAPKLLIYKAYSLEYGVPSRFSGSGSGTEFTLTISSLQPDDFATYYCQQFQKLPPFTFGGGTKVEIK
B3: anti-TF antibody 54E (antibody, human IgG1, V domains shown)
VH: QVQLVQSGAEVKKPGASVKVSCKASGYTFANYYMHWVRQAPGQGLEWMGIINPSGGITVYAQKFQGRVTMTRDTSTSTVYMELSSLRSEDTAVYYCARGGSKVAALAFDIWGQGTMVTVSS
VL: DIQMTQSPSSLSASVGDRVTITCQASQDISNSLNWYQQKPGKAPKLLIYDASNLETGVPSRFSGSRSGTDFTFTISSLQPEDIATYYCQQYNFHPLTFGGGTKVEIK
B4: 43B1 (antibody, IgG1, V domains shown)
VH: QVQLQESGPGLVKPSQTLSLTCTVSGGSISSGQYWSWIRQHPGKGLEWIGEIYYSGSTRYNPSLKSRVTISVDTSKNQFSLKLSSVTAADTAVYYCARDAPYYYGGGYYYYMDVWGKGTTVTVSS
VL: EIVLTQSPGTLSLSPGERATLSCRASESVDSSYLAWYQQKPGQAPRLLIYGASTRQTGIPDRFSGSGSGTDFTLTISRLEPEDFAVYYCQQAGVVPYTFGGGTKVEIK
B5: anti-TF antibody 43D7 conjugated to MC-vc-PAB-MMAE (antibody, IgG1, V domains shown)
VH: QVQLQQWGAGLLKPSETLSLTCAVYGGSLSGYYWSWIRQPPGKGLEWIGEIGASGSTRYNPSLKSRVTISVDTSKNQFSLKLSSVTAADTAVYYCARDTPYYYEGGYYYYMDVWGKGTTVTVSS
VL: B4 VL with E27D, S53F, T54S, Q56A, T57N
modifications: MC-vc-PAB-MMAE on cysteines of the partially reduced antibody (chain and positions not stated), DAR 3-4
B6: anti-TF antibody 43Ea (antibody, human IgG1, V domains shown)
VH: B4 VH with A100T, G105D
VL: B4 VL with E27Q, D30S, T54S, Q56A, A92V
B7: anti-TF antibody 43B1 (antibody, human IgG1, V domains shown)
VH: B4 VH
VL: B4 VL
B8: anti-TF antibody 43B1 conjugated to MC-vc-PAB-MMAE (antibody, IgG1, V domains shown)
VH: B4 VH
VL: B4 VL
modifications: MC-vc-PAB-MMAE on cysteines of the partially reduced antibody (chain and positions not stated), DAR 3-4
B9: 43Ea-vc-MMAE (antibody, IgG1, V domains shown)
VH: B4 VH with A100T, G105D
VL: B4 VL with E27Q, D30S, T54S, Q56A, A92V
modifications: MC-vc-PAB-MMAE on cysteines of the partially reduced antibody (chain and positions not stated), DAR 3-4
B10: anti-TF antibody 39A (antibody, human IgG1, V domains shown)
VH: QVQLVQSGAEVKKPGSSVKVSCKASGGTFSSNAIGWVRQAPGQGLEWMGSIIPIIGFANYAQKFQGRVTITADESTSTAYMELSSLRSEDTAVYYCARDSGYYYGASSFGMDVWGQGTTVTVSS
VL: EIVMTQSPATLSVSPGERATLSCRASQSVSSNLAWYQQKPGQAPRLLIYGASTRATGIPARFSGSGSGTEFTLTISSLQSEDFAVYYCEQYNNLPLTFGGGTKVEIK
B11: anti-TF antibody 1F (antibody, human IgG1, V domains shown)
VH: EVQLLESGGGLVQPGGSLRLSCAASGFTFSDYAMGWVRQAPGKGLEWVSTISGSGGLTYYADSVKGRFTISRDNSKNTLYLQMNSLRAEDTAVYYCAKAPYGYYMDVWGKGTTVTVSS
VL: not shown
B12: anti-TF antibody 29E (antibody, human IgG1, V domains shown)
VH: QVQLVESGGGVVQPGRSLRLSCAASGFTFRSYGMHWVRQAPGKGLEWVAVITYDGINKYYADSVEGRFTISRDNSKNTLYLQMNSLRAEDTAVYYCARDGVYYGVYDYWGQGTLVTVSS
VL: not shown

Legend:
Test in all cases: cell-based or functional assay
[1] = target: human Tissue Factor (TF) (human, UniProt P13726 33-295)
[2] = target: Relipidated TF (UniProt P13726 33-295, limits assumed)
[3] = target: T1, human Tissue Factor (hTF) (human, UniProt P13726 33-295)
[4] = target: Relipidated TF
[5] = target: Relipidated TF (UniProt P13726 33-295, limits assumed); remark: listed apart in the source
[6] = target: T1, human Tissue Factor (hTF); remark: listed apart in the source

Row | Binder | IC50, cell viability of A431 cells, Secondary ADC (antibody with anti-human Fc Fab:MMAF), Continuous (FIG. 18B) [3] [nM] | % ETP, TGA with 10 min antibody pre-incubation, 10 nM antibody [4] [%] | % Peak IIa, TGA with 10 min antibody pre-incubation, 10 nM antibody [4] [%] | % Peak IIa, TGA with 10 min antibody pre-incubation, 50 nM antibody [4] [%] | % Peak IIa, TGA with 10 min antibody pre-incubation, 100 nM antibody [4] [%] | % ttPeak, TGA with 10 min antibody pre-incubation, 10 nM antibody [4] [%] | % ttPeak, TGA with 10 min antibody pre-incubation, 50 nM antibody [4] [%] | Lag Time, TGA with 10 min antibody pre-incubation, 10 nM antibody [4] [min] | Lag Time, TGA with 10 min antibody pre-incubation, 50 nM antibody [4] [min] | Lag Time, TGA with 10 min antibody pre-incubation, 100 nM antibody [4] [min] | Peak IIa, TGA with 10 min antibody pre-incubation, 10 nM antibody [4] [nM] | Peak IIa, TGA with 10 min antibody pre-incubation, 50 nM antibody [4] [nM] | Peak IIa, TGA with 10 min antibody pre-incubation, 100 nM antibody [4] [nM] | ttPeak, TGA with 10 min antibody pre-incubation, 10 nM antibody [4] [min] | ttPeak, TGA with 10 min antibody pre-incubation, 50 nM antibody [4] [min] | ttPeak, TGA with 10 min antibody pre-incubation, 100 nM antibody [4] [min] | also measured
1 | B1 | – | – | – | – | – | – | – | – | – | – | – | – | – | – | – | – | % FXa at 12.5 nM antibody [1]: 37%; % FXa at 25 nM antibody [1]: 33%; % FXa at 50 nM antibody [1]: 30%; % FXa at 100 nM antibody [1]: 30%
2 | B2 | – | – | – | – | – | – | – | – | – | – | – | – | – | – | – | – | % ETP at 10 nM Ab (TGA without antibody pre-incubation) [2]: 99%; % Peak IIa at 10 nM Ab (TGA without antibody pre-incubation) [2]: 98%; % Peak IIa at 50 nM Ab (TGA without antibody pre-incubation) [2]: 98%; % Peak IIa at 100 nM Ab (TGA without antibody pre-incubation) [2]: 98%; ETP at 10 nM Ab (TGA without antibody pre-incubation) [2]: 2270 nM·min; ETP at 50 nM Ab (TGA without antibody pre-incubation) [2]: 2320 nM·min; ETP at 100 nM Ab (TGA without antibody pre-incubation) [2]: 2390 nM·min; Lag Time at 10 nM Ab (TGA without antibody pre-incubation) [2]: 4.7 min; Lag Time at 50 nM Ab (TGA without antibody pre-incubation) [2]: 4.8 min; Lag Time at 100 nM Ab (TGA without antibody pre-incubation) [2]: 5.1 min; Peak IIa at 10 nM Ab (TGA without antibody pre-incubation) [2]: 343 nM; Peak IIa at 50 nM Ab (TGA without antibody pre-incubation) [2]: 344 nM; Peak IIa at 100 nM Ab (TGA without antibody pre-incubation) [2]: 342 nM; ttPeak at 10 nM Ab (TGA without antibody pre-incubation) [2]: 8 min; ttPeak at 50 nM Ab (TGA without antibody pre-incubation) [2]: 8.1 min; ttPeak at 100 nM Ab (TGA without antibody pre-incubation) [2]: 8.5 min
3 | B3 | 0.11 | 83 | 43 | 16 | 13 | 96 | 303 | 6.5 | 18.3 | 22.3 | 121 | 44 | 37 | 13.7 | 28.2 | 33 | ETP, TGA with 10 min antibody pre-incubation, 10 nM antibody [4]: 1520 nM·min
4 | B4 | – | – | – | – | – | – | – | – | – | – | – | – | – | – | – | – | % Peak IIa, Ab conc. 10 nM [5]: 89%; % Peak IIa, Ab conc. 50 nM [5]: 72%; % ttPeak, Ab conc. 10 nM [5]: 9%; % ttPeak, Ab conc. 50 nM [5]: 29%; % ttPeak, Ab conc. 100 nM [5]: 37%
5 | B5 | – | – | – | – | – | – | – | – | – | – | – | – | – | – | – | – | IC50, cell viability of A431 cells, Primary ADC, Continuous (FIG. 20A) [3]: 0.06 nM; IC50, cell viability of HPAF-II cells, Primary ADC, Continuous (FIG. 22E) [3]: 0.05 nM; IC50, cell viability of MDA-MB-231 cells, Primary ADC, Continuous (FIG. 22D) [3]: 0.14 nM; IC50, cell viability of A431 cells, Primary ADC, 4 hr, followed by washout (FIG. 20B) [6]: 0.28 nM; IC50, cell viability of A431 cells, Primary ADC, 4 hr, followed by washout, absence of FVIIa (FIG. 21A) [6]: 0.14 nM
6 | B6 | 0.13 | – | – | – | – | – | – | – | – | – | – | – | – | – | – | – | –
7 | B7 | 0.12 | – | – | – | – | – | – | – | – | – | – | – | – | – | – | – | –
8 | B8 | – | – | – | – | – | – | – | – | – | – | – | – | – | – | – | – | IC50, cell viability of A431 cells, Primary ADC, Continuous (FIG. 20A) [3]: 0.08 nM; IC50, cell viability of HPAF-II cells, Primary ADC, Continuous (FIG. 22E) [3]: 0.05 nM; IC50, cell viability of MDA-MB-231 cells, Primary ADC, Continuous (FIG. 22D) [3]: 0.14 nM; IC50, cell viability of A431 cells, Primary ADC, 4 hr, followed by washout (FIG. 20B) [6]: 0.36 nM; IC50, cell viability of A431 cells, Primary ADC, 4 hr, followed by washout, absence of FVIIa (FIG. 21A) [6]: 0.19 nM
9 | B9 | – | – | – | – | – | – | – | – | – | – | – | – | – | – | – | – | IC50, cell viability of A431 cells, Primary ADC, Continuous (FIG. 20A) [3]: 0.09 nM; IC50, cell viability of HPAF-II cells, Primary ADC, Continuous (FIG. 22E) [3]: 0.06 nM; IC50, cell viability of MDA-MB-231 cells, Primary ADC, Continuous (FIG. 22D) [3]: 0.15 nM; IC50, cell viability of A431 cells, Primary ADC, 4 hr, followed by washout (FIG. 20B) [6]: 0.43 nM; IC50, cell viability of A431 cells, Primary ADC, 4 hr, followed by washout, absence of FVIIa (FIG. 21A) [6]: 0.24 nM
10 | B10 | 0.08 | 0 | 13 | 8 | 7 | 319 | 491 | 19.6 | 30.7 | 33.6 | 36 | 22 | 19 | 29.3 | 41.4 | 44.6 | % ttPeak, TGA with 10 min antibody pre-incubation, 100 nM antibody [4]: 537%
11 | B11 | 0.07 | 41 | 16 | 8 | 7 | 220 | 433 | 13.8 | 26.5 | 29.5 | 44 | 23 | 20 | 22.4 | 37.3 | 40.8 | % ttPeak, TGA with 10 min antibody pre-incubation, 100 nM antibody [4]: 483%; ETP, TGA with 10 min antibody pre-incubation, 10 nM antibody [4]: 742 nM·min
12 | B12 | 0.1 | 77 | 36 | 30 | 28 | 159 | 237 | 9.4 | 14.1 | 14.7 | 98 | 83 | 76 | 18.1 | 23.6 | 24.3 | % ETP, TGA with 10 min antibody pre-incubation, 50 nM antibody [4]: 72%; % ETP, TGA with 10 min antibody pre-incubation, 100 nM antibody [4]: 66%; % ttPeak, TGA with 10 min antibody pre-incubation, 100 nM antibody [4]: 247%; ETP, TGA with 10 min antibody pre-incubation, 10 nM antibody [4]: 1410 nM·min; ETP, TGA with 10 min antibody pre-incubation, 50 nM antibody [4]: 1300 nM·min; ETP, TGA with 10 min antibody pre-incubation, 100 nM antibody [4]: 1200 nM·min
